Measurements from the nanobody polyreactivity screen of Harvey et al. (2022).

test: yeast display, Sf9 membrane polyspecificity reagent, FACS + sequencing; frameworks hold sequencing errors
Outline: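 Nanobodies came from a synthetic yeast display library in Saccharomyces cerevisiae BJ5465, induced with galactose for 36–48 hours and stained for 1 hour at 4 °C with 10% biotinylated, detergent-solubilized Sf9 membrane reagent. Cells were enriched on streptavidin microbeads and then FACS-sorted, with low and high (top ~1%) gates set on anti-HA fluorescence for expression and streptavidin fluorescence for reagent binding. Each polyreactivity label reflects the gate a clone came from. Genes were amplified by colony PCR, sequenced by MiSeq 2 × 250 and filtered by CDR length.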

Sequence	polyreactivity (PSR sort gate)
QVQLVESGGGLVQAGGSLRLSCDASGSTFVHYAMGWYRQAPGKERQLVAAISSSGDSTYYADSVKGRFTISRDNAKNTVYLKMNSLKPEDTAVYYCAVRSRTPRAYYYWGQGTQVTVSS	low polyreactivity
QVQLVESGGGLVQAGGSLRLSCAASGSIFRLYALGWYRQAPGKERELVAAISRRGGSTNYADSVKGRFTISRDNAKNTVYFQMNSLKPEDTAVYYCARDVDTHYPYAYDYWGQGTQVTVSS	high polyreactivity
QVQLVESGGGLVQAGGSLRLRCAASGSTYTVYAMGWYRQAPRKDRELVAAIRDGSSTNYADSVKGRFTISRDNAKNTVYLQRNSLKPEDTAVYYCNAPYPPTGYGDDDYWGQGTQVTVSA	low polyreactivity
QDQLVESGGGLVQAGGSLRLSCAASGRIFPYNAMGWYRQAPGKERELVAGISRTGGSTYYADSVKGRFTISRDNAKNTVYLQMNSLKPEDTAVYYCAARPGAHPDRLDYWGQGTQVTVSS	low polyreactivity
QVQLVESGGGLVQAGGSLRLSCAASGSIFSAYAMGWYRQAPGKEREIVASITWSGGSTYYADSVKGRFTISRDNAKNTVYLQMNSLKPEDTAVYYCAAVYVTWYNNYEYWGQGTQVTVSS	high polyreactivity
QVQLVESGGGLVQAGGSLRLSCAASGFIIYYYAMGWYRQAPGKERELVARISRRGGSTYYADSVKGRFTISRDNAKNTVYLQMNSLKPEDTAVYYCNAERRYSWYSQGDYWGQGTQVSVSS	high polyreactivity
QVQLVESGGCLVQAGGSLRLTCAASGIIFYAYAMGWYRQAPGKEREFVAAINNSGGRTYYADSVKGRFTISRDNAKNTVYLQMHSLKPEDTAVYYCAVYSYYRRTYRREMDYWGQGTQVTVSS	high polyreactivity
QVQLVESGGGLVQAGGSLRLICAASGLIFSYYAMGWYRQAPGKERELVAAISRGGSTNYADSVKGRFTISRDNAKNTVYLQMNSLKPEDTAVYYCAARFVVRRDYGYWGQGTQVTVSS	high polyreactivity
QVQLVESGGGLVQAGGRLRISFAATGITSGRYAMGGYRQAPGNERELVAAISNSGGSTYYADSVKGRFTISRDNAKNTVYLQMNSLKPEDTAVYYCAARSASSRMDYWGQGTQVTVSS	high polyreactivity
QVQLVESGGGLVQAGGSLRLSCAASGFSFYNYAMGWYRQAPGKERELVAAISWSGGSTHYADSVKGRFTISRDNAKNTVYLQMNSLKPEDTAVYYCAKVGVLGYYTYYYWGQGTQVTVSS	low polyreactivity
QVQLVESGGGLVQAGGSLRLSCAASGSIFHFYVMGWYRQAPGKERELVAGISSSGGRTYYADSVKGRFTISRDNAKNTFYLQMNSLKPEDTAVYYCANDMYHSVGRYDYWGQGTQVTVSS	low polyreactivity
QVQLVESGGGLVQAGGSLRLSCAASGSIFYQYAMGWYRQAPGKERELVAAISVRAGITYYADSVKGRFTISRDNAKNTVYLQMNSLKPEETAVYYGAKDHWTTSYDEGDYWGQGTQVTVSS	low polyreactivity
KVQLVESGGGLVQAGGSLRLTCAASGSTFYIYAMGWYRPAPGKERELVATISSTGSTHYADSVKGRFTISRDNAKNTVFLQMNSLKPEDTAGYYCNPVYFGRYSRRDHWGQGTQVTVSS	high polyreactivity
QVQLVESGGGLVQAGGSLRLSCAASGRILYYYVMGWYRPAPGKEREFVAAISSSASNTYYADSVKGRITISRDNAKNTVEFQMNSLKPEDTAVYYCAADTLWLDWQGYDYWGQGTQVTVSS	low polyreactivity
QVQLVESGGGLVQAGGSLRLSCAASGSTFDRYAMGGYIQAPGKERELVAAISWSGGSTYYADSVKGRFTISRDNAKNTVYFQMNSLKPEDTAVYYCASPYYYLHNQRYWGYDYWGQGTQVTVSS	high polyreactivity
QVQLVESGGGLVQAGGRLRLSCPASGGTFGYNAMGWYRQAPGKERELVAAIRNGGSTYFADSVKGRFTISRDNAKNTVYLQMNSLKPEESAVYYCAAGPRGTGKYYWGQGTQVTVSS	high polyreactivity
QVQLVESGGGLVQAGGSLRLSCAASGSIIWRNTMGWYRQAPGKESELVARITGRGGRTNYADSVKGRFTISRDNAKNTVYLQMNSLKPEDTAVYYCAAAYPSVAYSYRYDYWGQGTQVTVSS	high polyreactivity
QVQLVESGGGLVQAGGSLRLSCAASGRIFVGYAMGWYRQAPGKERELVAAINRSGSSTYYADSVKGRFTISRDNAKNTVYLQMNSLKPEDSAVYYCNARAPSYYRYRASSAYDYWGQGTQVTVSS	high polyreactivity
QVQLVESVGGLVQAGGSLRLSCAASGSTFWYNAMGWYRLAPGKERELVAAISQSGGRTYYADSVKGRFTISRDNAKNTVYLQMNSLKPEDTAVYYCNAVSRDKSLYDYWGQGTQVTVSS	high polyreactivity
QVQLVESGGCLVQAGGSLRLSCAASGRILEYYTMGWYRQAPGKERELVAGITSGGTTNYADSVKGRFTISRDNAKNTVYLQMNSLKPEDTAVYYCALKQSYYFGSYFYGHEYYYWGQGTQVTVSS	low polyreactivity
QVHLVESGGGLVQAGGSLRLSCAASGRIFGYYAMGWYRQAPGKVRELVAAIRRSGGSTYADSVKGRFTISRDNAKNTVYLQMNSLKPEDTAVYDCAAGHYWTSPYRVLSYSYWGQGTQVTVSS	high polyreactivity
QVQLVESGGGLVQAGGSLRLSCASSGFTFHSYAMGWYRQAPGKERELVAAISTGGTRTYYADSVKGRFTISRDNAKNTVYLQMNSLKTEDTAVYYCAADLYRGVRIYSKYDSWGQGTQVTVSS	high polyreactivity

Sequence	polyreactivity (PSR sort gate)
QVQLVESGGGLVQAGGSLRLSCAASGRTFYIYTMGWYRQAPGKERELVAAISGRGGRTYYADSVKGSFTISRDNAKNTVYLQMNSLKPEDTAVYYCARGGRVRYDYWGQGTQVTVSS	low polyreactivity
QVQLVESGGGLVQAGGSLRFSCAASGRIFGRYAMGWYRQAPGKERELDAAISYSGGSTYYADSVKGRFTISRDNAKNTVYLQMNSLKPEDTAVYYCAVVVYQYTPSQRFYYWGQGTQVTVSS	high polyreactivity
QVQLVESGGSLVQAGGSLRVSCAASRSIFEHYAMGWYRQAHGKERELVATISSASRTHYADSVKGRFTISRDNAKNTVYLQRNSLKREDTAVYYCAARLYYVWYAPYYYWGQGTQVSVSS	high polyreactivity
QVQLVESGGGLVQAGGSLRLSCAASGITFSRYGMGWYRQAPGKERELVAVISWRGGRTYYADSVKGRFTISRYNAKNTVYLHMNSLKPEDTAVYYCAADSRQSVYDYDYWGQGTQVTVSS	high polyreactivity
QVQLVESGGGLVQAGGSLRLSCAASGRTFPGNAMGWYRQAPGKERELVAGISYRGGSTYYADSVKGRFTISRDYGKNTVYLQMNSLKPEDTAVYYCARDYSRHKGDYWGQGTQVNVSS	low polyreactivity
QVQLVESGGGLVQAGGSLRLSCGASGSIFRYYTMGWYRQAPGKERELVAAISRSGGSTYYADSVKGRFTISRDNAKNTVYLQMNRLKPEDTAVYYCAARSGYIYEYWGQGTQVTVSS	high polyreactivity
QVQLVESGGGLVQAGGSLRLSCAASGFIFGHNTMGWYRQAPGKERELVARITSSGGGTNYADSVKGRFTISRDNAKNTVYLQMNSLKPEDTAVYYCAAELLYWGYYDYDYWGQGTQVTVSS	high polyreactivity
QVQLVESGGGLVHAGGSLRLSCAASGRIFQVYAMGWYRQAPGKERELVAAISARGGSTYYADSVKGRFTISRDNAKNTVYLQMNSLKPEDTAVYYCAARSAYGTQRLYYWGQGTQVTVSS	high polyreactivity
QDQHVESGGGLVQAGGSLRLSCAASGLTYRYNAMGWYRPAPGKERELVAAITSSGGSTYYADSVKGRFTISRDNAKNTVYLQMNSLKPEDTAVYYCAAATNTQESVPMYYWGQGTQVTVSS	low polyreactivity
QVQLEESGGGLFQAGGSLRLSCAASGTTQNGYTMGWYRQAPGKEREMVATINRGSSTHYADSVKGRFTISRDNAKNTVYLQMNSLKPEDTAVYYCNKRYPLGTEYYYLGQGTQVTVSS	high polyreactivity
QVQLVESGGGLVQAGGSLRLSCAASGSNFTYYAMGWYRQAPGKERELVAAISYSGGTTYYADSVKGRFTISRDNAKNTVYLQMNSLKPEDTAVYYCNVDADYESQWLSVGYDYWGQGTQVTVSS	low polyreactivity
QVQLVESGGGLVQAGGSLRLSCAASGSTFPSNAMGWYRQAPGKERELVAAITFRGGRTYYADSVKGRFTISRDNAKNTVYLQMNSLKPEDTAVYYCAAERWWYTVRGYGYWGQGTQVTVSS	high polyreactivity
QVQLVESGGGLVQAGGSLRLSCAASGITFQYYAMGWYRQAPGKERELVAAITSSGVSTYYADSVKGRFTISRDNAKNTVYLQMNSLKPEDTAVYYCNTVVRGWSSSAYDYWGQGTQVTVSS	low polyreactivity
QVQLVESGGGLVQAGGSLRLSCAASGRTLYYYTMGWYRPAPGKERELVAAIRWSTGSTYYADSVKGRFTISRDNAKNTVYLQMNSLKPEDTAVYYCNAYRYQWAQSTEYDYWGQGTQVTVSS	high polyreactivity
QVQLVESGGGLVQAGGSLRLSCAASGSIFWRNVMGWYRQAPGKERELVAAISSGGSTYYADSVKGRFTISRDNAKNTVYLQMNSLKPEDTAVYYCAAPRYDYWGQGTQVTVSS	high polyreactivity
QVQLVESGGGLVQAGGSLRLSCAASGRTFYKYGMGWYRQAPGKERELVASISSGGNTYYADSVKGRFTISRDNAKNTVYLQMNSLKPEDTAVYYCNAGYWAKFDYWGQGTQVTVSS	high polyreactivity
QVQLVESGGGLVQAGGSLRLSCAASGSTFYPNAMGWYRQAPGKERELVADISYSGGRTYYADSVKGRFTISRDNAKNTVYLQMNSLKPEYTAVYYCAARKVTYHYQWMDYWGQGTQVTVSS	low polyreactivity
QVQLVESGGGLVQAGGSLRLSCAASGITFTEYAMGWYRQAPGKERELVATISYGGGITYYADSVKGRFTISRDNAKNTVYLQMNSLKPEDTAVYYCAADGLSQVQRGMDYWGQGTQVTVSS	low polyreactivity
QVQLVESGGGLVQAGGSLRLSCAASGSTLGYYGMGWYRQAPGKERELVAAISGRGTSTYYADSVKGRCTISRDNAKNTVYLQMNSLKPEDTAVYYCAAQLFRELYWGQGTQVTVSS	high polyreactivity
QVQLVESGGGLVQAGGSLRLSCAASGRICEVYAMGWYRQAPGKERELVAAINSGGSTRYADSVKGRFTISRDNAKNTVYLQMNSLKPEDTAVYYCNARPGYYRYLRGYNYWGQGTQVTVSS	low polyreactivity
QVQLVESGGGLVQAGGSLRLSCAASGRTFYANAMGWYRQAPGKERELVAAITYRGGSTNYADSVKGRFTISRDNAKNTVYLQMNSLKPEDTAVYYCAKVYNPNYLWYLTYGYDYWGQGTQVTVSS	low polyreactivity
